Tested on: Escherichia coli TOP10
Assay: shrunken log2 fold change of peptide-encoding DNA abundance (4.5 h post-induction vs induction); higher = less antimicrobial activity (less host growth inhibition)
Conditions: time post-induction: 4.5 h; library: site-saturation at positions 5, 18, 19, 20
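Note: peptides expressed intracellularly from a pBAD plasmid library in pooled LB shake-flask culture, induced with 0.3% L-arabinose, DNA abundance read by NGS, three biological replicates, DESeq2 with apeglm shrinkage.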

Row | Sequence | shrunken log2 fold change
1 | RRIRFRPPRLPRPRPRPLHWPRP | 0.0916
2 | RRIRGRPPRLPRPRPRPGYYPRP | -0.301
3 | RRIRMRPPRLPRPRPRPTGYPRP | 0.0453
4 | RRIRNRPPRLPRPRPRPIEKPRP | -0.0498
5 | RRIRIRPPRLPRPRPRPVGPPRP | 0.0747
6 | RRIRPRPPRLPRPRPRPAIEPRP | -0.0623
7 | RRIRNRPPRLPRPRPRPDRPPRP | -0.151
8 | RRIRLRPPRLPRPRPRPWYAPRP | -0.171
9 | RRIRDRPPRLPRPRPRPQTLPRP | 0.0519
10 | RRIRSRPPRLPRPRPRPSHEPRP | 0.0867
11 | RRIRRRPPRLPRPRPRPNRHPRP | -0.00811
12 | RRIRNRPPRLPRPRPRPYRLPRP | -0.00674
13 | RRIRDRPPRLPRPRPRPHNSPRP | 0.0166
14 | RRIRGRPPRLPRPRPRPSDKPRP | 0.0485
15 | RRIRTRPPRLPRPRPRPWHEPRP | 0.111
16 | RRIRDRPPRLPRPRPRPNNCPRP | -0.466
17 | RRIRQRPPRLPRPRPRPNIRPRP | 0.0516
18 | RRIRFRPPRLPRPRPRPNCPPRP | 0.0451
19 | RRIRPRPPRLPRPRPRPKVAPRP | 0.02
20 | RRIRKRPPRLPRPRPRPIQPPRP | -0.00952
21 | RRIRVRPPRLPRPRPRPNVVPRP | -0.109
22 | RRIRGRPPRLPRPRPRPDTYPRP | 0.241
23 | RRIRCRPPRLPRPRPRPAHFPRP | 0.147
24 | RRIRPRPPRLPRPRPRPHFAPRP | 0.284
25 | RRIRERPPRLPRPRPRPDDIPRP | -0.793

Row | Sequence | shrunken log2 fold change
26 | RRIRTRPPRLPRPRPRPLIWPRP | 0.361
27 | RRIRHRPPRLPRPRPRPWCNPRP | -0.417
28 | RRIRIRPPRLPRPRPRPMPKPRP | -0.0638
29 | RRIRDRPPRLPRPRPRPIVGPRP | 0.145
30 | RRIRLRPPRLPRPRPRPMRMPRP | -0.076
31 | RRIRKRPPRLPRPRPRPTNRPRP | -0.0262
32 | RRIRFRPPRLPRPRPRPGGWPRP | 0.654
33 | RRIRKRPPRLPRPRPRPGRHPRP | 0.227
34 | RRIRARPPRLPRPRPRPKYCPRP | -0.464
35 | RRIRERPPRLPRPRPRPPSQPRP | -0.213
36 | RRIRHRPPRLPRPRPRPHRMPRP | -0.46
37 | RRIRARPPRLPRPRPRPNSPPRP | -0.138
38 | RRIRTRPPRLPRPRPRPPAPPRP | 0.592
39 | RRIRQRPPRLPRPRPRPNMPPRP | -0.634
40 | RRIRFRPPRLPRPRPRPKCQPRP | 0.274
41 | RRIRTRPPRLPRPRPRPYNRPRP | -0.0176
42 | RRIRLRPPRLPRPRPRPSKPPRP | -0.0779
43 | RRIRWRPPRLPRPRPRPEDQPRP | 0.475
44 | RRIRDRPPRLPRPRPRPPHPPRP | 0.235
45 | RRIRARPPRLPRPRPRPPEHPRP | 0.606
46 | RRIRPRPPRLPRPRPRPEDGPRP | 0.0827
47 | RRIRVRPPRLPRPRPRPTSEPRP | 0.066
48 | RRIRWRPPRLPRPRPRPHEAPRP | 0.273
49 | RRIRVRPPRLPRPRPRPLRYPRP | -0.142
50 | RRIRPRPPRLPRPRPRPMCGPRP | -0.252

Row | Sequence | shrunken log2 fold change
51 | RRIRTRPPRLPRPRPRPRFCPRP | 0.443
52 | RRIRTRPPRLPRPRPRPRFQPRP | 0.177
53 | RRIRGRPPRLPRPRPRPYECPRP | -0.075
54 | RRIRNRPPRLPRPRPRPQMNPRP | -0.614
55 | RRIRWRPPRLPRPRPRPYGDPRP | -0.113
56 | RRIRVRPPRLPRPRPRPTQQPRP | 0.346
57 | RRIRVRPPRLPRPRPRPHSYPRP | -0.262
58 | RRIRFRPPRLPRPRPRPLMLPRP | -0.282
59 | RRIRHRPPRLPRPRPRPTFAPRP | 3.26
60 | RRIRQRPPRLPRPRPRPQTYPRP | -0.958
61 | RRIRDRPPRLPRPRPRPYNAPRP | -0.0556
62 | RRIRRRPPRLPRPRPRPRQNPRP | 0.419
63 | RRIRMRPPRLPRPRPRPGCDPRP | 1.85
64 | RRIRFRPPRLPRPRPRPLNYPRP | -0.755
65 | RRIRSRPPRLPRPRPRPARGPRP | 0.574
66 | RRIRRRPPRLPRPRPRPRPHPRP | 1.6
67 | RRIRLRPPRLPRPRPRPILCPRP | -0.152
68 | RRIRRRPPRLPRPRPRPVPFPRP | 0.0998
69 | RRIRKRPPRLPRPRPRPARTPRP | 0.476
70 | RRIRGRPPRLPRPRPRPDQHPRP | 0.271
71 | RRIRFRPPRLPRPRPRPFNAPRP | -0.415
72 | RRIRVRPPRLPRPRPRPYREPRP | -0.3
73 | RRIRYRPPRLPRPRPRPGEIPRP | -0.0481
74 | RRIRFRPPRLPRPRPRPHAWPRP | -0.126
75 | RRIRERPPRLPRPRPRPKDGPRP | 0.0062

Row | Sequence | shrunken log2 fold change
76 | RRIRPRPPRLPRPRPRPMKIPRP | 0.0483
77 | RRIRMRPPRLPRPRPRPIAVPRP | -0.015
78 | RRIRRRPPRLPRPRPRPTMDPRP | 0.147
79 | RRIRKRPPRLPRPRPRPSMFPRP | -0.15
80 | RRIRTRPPRLPRPRPRPRLNPRP | -0.251
81 | RRIRCRPPRLPRPRPRPMKHPRP | -0.486
82 | RRIRSRPPRLPRPRPRPEYTPRP | -0.0105
83 | RRIRYRPPRLPRPRPRPKSMPRP | -0.584
84 | RRIRLRPPRLPRPRPRPYLYPRP | -0.164
85 | RRIRCRPPRLPRPRPRPNRNPRP | -0.562
86 | RRIRTRPPRLPRPRPRPTEKPRP | 0.015
87 | RRIRHRPPRLPRPRPRPACDPRP | 0.285
88 | RRIRIRPPRLPRPRPRPRICPRP | -0.3
89 | RRIRTRPPRLPRPRPRPMDCPRP | -0.0416
90 | RRIRTRPPRLPRPRPRPKHQPRP | 0.219
91 | RRIRRRPPRLPRPRPRPYAHPRP | 0.082
92 | RRIRWRPPRLPRPRPRPYMTPRP | -0.877
93 | RRIRFRPPRLPRPRPRPNSEPRP | -0.406
94 | RRIRIRPPRLPRPRPRPFVHPRP | -0.498
95 | RRIRDRPPRLPRPRPRPRVYPRP | 0.102
96 | RRIRQRPPRLPRPRPRPQDYPRP | -0.685
97 | RRIRQRPPRLPRPRPRPQAIPRP | 0.0712
98 | RRIRQRPPRLPRPRPRPPCKPRP | 0.0303
99 | RRIRDRPPRLPRPRPRPRNDPRP | -0.461
100 | RRIRIRPPRLPRPRPRPPGMPRP | 0.238

Row | Sequence | shrunken log2 fold change
101 | RRIRDRPPRLPRPRPRPWYWPRP | 0.000762
102 | RRIRFRPPRLPRPRPRPWLMPRP | -0.58
103 | RRIRNRPPRLPRPRPRPGQHPRP | 0.128
104 | RRIRIRPPRLPRPRPRPNYDPRP | -0.638
105 | RRIRPRPPRLPRPRPRPDYFPRP | -0.503
106 | RRIRSRPPRLPRPRPRPSYSPRP | 0.232
107 | RRIRVRPPRLPRPRPRPCRPPRP | 0.00447
108 | RRIRARPPRLPRPRPRPWACPRP | 0.0376
109 | RRIRCRPPRLPRPRPRPKGCPRP | 0.00419
110 | RRIRCRPPRLPRPRPRPAPHPRP | 0.625
111 | RRIRFRPPRLPRPRPRPIRQPRP | -0.297
112 | RRIRCRPPRLPRPRPRPEEQPRP | -0.0372
113 | RRIRERPPRLPRPRPRPDHGPRP | -0.00973
114 | RRIRGRPPRLPRPRPRPHCGPRP | -0.0798
115 | RRIRTRPPRLPRPRPRPNKPPRP | -0.0031
116 | RRIRDRPPRLPRPRPRPRPGPRP | 1.6
117 | RRIRMRPPRLPRPRPRPHKNPRP | 0.195
118 | RRIRRRPPRLPRPRPRPEYEPRP | -0.022
119 | RRIRNRPPRLPRPRPRPLSSPRP | -0.0989
120 | RRIRIRPPRLPRPRPRPQLGPRP | -0.0971
121 | RRIRTRPPRLPRPRPRPMCIPRP | -0.649
122 | RRIRNRPPRLPRPRPRPQQHPRP | -0.111
123 | RRIRLRPPRLPRPRPRPYILPRP | -0.317
124 | RRIRRRPPRLPRPRPRPYGQPRP | 0.501
125 | RRIRHRPPRLPRPRPRPHVEPRP | -0.0794

— the supplement of paper PMC9112550, “Optimization of the antimicrobial peptide Bac7 by deep mutational scanning” (BMC Biology, 2022)
